Experimental data as given in patent publication US20070224124A1 (UNIVERSITY OF SOUTH FLORIDA, published 2007).

T1: mSosI ( (endogenous in murine ES …, UniProt Q62245 1-1319))
T1 construct: Its expression in ES cells was confirmed by immunoblot of whole cell lysate; also called mSos1
T1 sequence (looked up): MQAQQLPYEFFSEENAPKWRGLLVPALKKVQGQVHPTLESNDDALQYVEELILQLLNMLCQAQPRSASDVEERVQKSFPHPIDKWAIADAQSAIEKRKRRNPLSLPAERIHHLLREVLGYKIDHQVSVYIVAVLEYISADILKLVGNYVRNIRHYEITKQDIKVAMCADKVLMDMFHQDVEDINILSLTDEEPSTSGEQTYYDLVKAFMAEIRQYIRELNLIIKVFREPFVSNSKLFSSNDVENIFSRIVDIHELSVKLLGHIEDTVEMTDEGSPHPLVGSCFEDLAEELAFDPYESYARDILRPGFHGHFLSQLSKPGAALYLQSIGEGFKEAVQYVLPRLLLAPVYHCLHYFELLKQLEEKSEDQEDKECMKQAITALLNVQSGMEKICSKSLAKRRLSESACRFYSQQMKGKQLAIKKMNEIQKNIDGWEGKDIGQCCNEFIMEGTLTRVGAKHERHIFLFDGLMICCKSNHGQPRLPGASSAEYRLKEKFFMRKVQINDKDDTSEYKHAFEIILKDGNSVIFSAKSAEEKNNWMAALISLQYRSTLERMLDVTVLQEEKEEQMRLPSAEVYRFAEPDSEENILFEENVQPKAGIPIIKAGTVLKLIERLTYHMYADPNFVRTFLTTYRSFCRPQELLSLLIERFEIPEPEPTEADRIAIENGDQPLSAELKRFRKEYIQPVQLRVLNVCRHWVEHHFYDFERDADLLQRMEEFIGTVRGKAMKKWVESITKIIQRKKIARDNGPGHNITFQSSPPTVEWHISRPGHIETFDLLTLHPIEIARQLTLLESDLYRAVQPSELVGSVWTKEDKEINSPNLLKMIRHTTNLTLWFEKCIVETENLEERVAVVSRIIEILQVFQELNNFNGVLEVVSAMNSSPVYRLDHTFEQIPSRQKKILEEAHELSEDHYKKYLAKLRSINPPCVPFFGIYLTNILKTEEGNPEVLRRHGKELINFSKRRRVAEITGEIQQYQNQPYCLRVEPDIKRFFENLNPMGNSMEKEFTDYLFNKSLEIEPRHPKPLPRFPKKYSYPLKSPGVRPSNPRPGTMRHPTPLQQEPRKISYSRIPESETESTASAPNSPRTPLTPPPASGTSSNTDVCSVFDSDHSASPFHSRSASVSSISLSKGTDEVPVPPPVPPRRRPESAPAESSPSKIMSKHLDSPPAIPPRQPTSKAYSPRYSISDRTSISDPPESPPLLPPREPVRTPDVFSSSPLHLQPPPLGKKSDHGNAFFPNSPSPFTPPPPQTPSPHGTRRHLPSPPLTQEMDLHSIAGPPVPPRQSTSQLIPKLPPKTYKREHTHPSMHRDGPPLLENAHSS

B1: s-SHIP (stem-SHIP; SH2-lacking isoform of SH2-containing inositol 5'-phosphatase, approximately 104 kd) (enzyme, mouse, UniProt Q9ES52-5 1-928, looked up)
chain: MVAKLSQLTSLLSSIEDKVKSLLHEGSESTNRRSLIPPVTFEVKSESLGIPQKMHLKVDVESGKLIVKKSKDGSEDKFYSHKKILQLIKSQKFLNKLVILVETEKEKILRKEYVFADSKKREGFCQLLQQMKNKHSEQPEPDMITIFIGTWNMGNAPPPKKITSWFLSKGQGKTRDDSADYIPHDIYVIGTQEDPLGEKEWLELLRHSLQEVTSMTFKTVAIHTLWNIRIVVLAKPEHENRISHICTDNVKTGIANTLGNKGAVGVSFMFNGTSLGFVNSHLTSGSEKKLRRNQNYMNILRFLALGDKKLSPFNITHRFTHLFWLGDLNYRVELPTWEAEAIIQKIKQQQYSDLLAHDQLLLERKDQKVFLHFEEEEITFAPTYRFERLTRDKYAYTKQKATGMKYNLPSWCDRVLWKSYPLVHVVCQSYGSTSDIMTSDHSPVFATFEAGVTSQFVSKNGPGTVDSQGQIEFLACYATLKTKSQTKFYLEFHSSCLESFVKSQEGENEEGSEGELVVRFGETLPKLKPIISDPEYLLDQHILISIKSSDSDESYGEGCIALRLETTEAQHPIYTPLTHHGEMTGHFRGEIKLQTSQGKMREKLYDFVKTERDESSGMKCLKNLTSHDPMRQWEPSGRVPACGVSSLNEMINPNYIGMGPFGQPLHGKSTLSPDQQLTAWSYDQLPKDSSLGPGRGEGPPTPPSQPPLSPKKFSSSTANRGPCPRVQEARPGDLGKVEALLQEDLLLTKPEMFENPLYGSVSSFPKLVPRKEQESPKMLRKEPPPCPDPGISSPSIVLPKAQEVESVKGTSKQAPVPVLGPTPRIRSFTCSSSAEGRMTSGDKSQGKPKASASSQAPVPVKRPVKPSRSEMSQQTTPIPAPRPPLPVKSPAVLQLQHSKGRDYRDNTELPHHGKHRQEEGLLGRTAMQ
notes: also called 8-SHIP protein isoform; 104-kd and 97-kd proteins

Legend:
[1] = target: B1; experiment: co-immunoprecipitation from ES-TL1 cell lysate with P2C6 anti-SHIP antibody, immunoblot for Shc
Excerpt: (§1) FIG. 6 illustrates how ES cells express the 8-SHIP protein isoform that associates with the Grb2 adapter protein. (A) Immunoprecipitation and immunoblot detection of s-SHIP in ES cell lysates. […] No tyrosine phosphorylation of these proteins was detected when they were probed with the 4G10 anti-phosphotyrosine antibody. For comparison, lysates from 293T cells transfected with SHIP cDNA (lane 1) and s-SHIP cDNA (lane 2) were included in the blots. To further assess the tyrosine phosphorylation status of s-SHIP, timed LIF stimulation studies were performed. ES-TL1 cells incubated for 5 hours without LIF were stimulated with 2000 U/mL LIF for 0, 2, 5, or 10 minutes and were rapidly lysed. Equal amounts of total protein were immunoprecipitated with the P2C6 antibody and probed separately with the P2C6 and 4G10 antibodies (lanes 6-9). No tyrosine phosphorylation of s-SHIP was detected at any time point with the 4G10 antibody. For comparison, A20 8-lymphoid cells were stimulated with antiIgG antibody for 0 or 5 minutes, lysed, immunoprecipitated with P2C6, and probed with P2C6 and 4G10 (lanes 3, 4), showing prominent tyrosine phosphorylation of SHIP at 5 minutes. Molecular mass standards are indicated on the right. (B) s-SHIP associates with Grb2 but not Shc in ES cells. ES-TL1 cell lysates were prepared and immunoprecipitated with the […] anti-SHIP monoclonal antibody. […]

mSosI = target: T1, mSosI; experiment: co-immunoprecipitation from ES-TL1 cell lysate with P2C6 anti-SHIP antibody, immunoblot for mSosI
Excerpt: as §1

binding result [1]	binding result (mSosI)	Binder
no binding	–	Shc adapter protein (other, UniProt P98083 1-579, looked up, Its expression in ES cells was confirmed by immunoblot of whole cell lysate) MDLLPPKPKYNPLRNESLSSLEEGASGSTPPEELPSPSASSLGPILPPLPGDDSPTTLCSFFPRMSNLKLANPAGGRLGPKGEPGKAAEDGEGSAGAALRDSGLLPLLQDMNKLSGGGGRRTRVEGGQLGGEEWTRHGSFVNKPTRGWLHPNDKVMGPGVSYLVRYMGCVEVLQSMRALDFNTRTQVTREAISLVCEAVPGAKGATRRRKPCSRPLSSILGRSNLKFAGMPITLTVSTSSLNLMAADCKQIIANHHMQSISFASGGDPDTAEYVAYVAKDPVNQRACHILECPEGLAQDVISTIGQAFELRFKQYLRNPPKLVTPHDRMAGFDGSAWDEEEEEPPDHQYYNDFPGKEPPLGGVVDMRLREGAARPTLPSAQMSSHLGATLPIGQHAAGDHEVRKQMLPPPPCPGRELFDDPSYVNIQNLDKARQAGGGAGPPNPSLNGSAPRDLFDMKPFEDALRVPPPPQSMSMAEQLQGEPWFHGKLSRREAEALLQLNGDFLVRESTTTPGQYVLTGLQSGQPKHLLLVDPEGVVRTKDHRFESVSHLISYHMDNHLPIISAGSELCLQQPVDRKV
–	no binding	B1
